Consider one molecule from publication PMC5018218.

Some targets named below: DmcElp3 9-459 (Dehalococcoides mccartyi, UniProt A0A1C7D1B7 9-459); DmcElp3 K2A K3A (Dehalococcoides mccartyi, UniProt A0A1C7D1B7 1-459, K2A;K3A); DmcElp3 R6A (Dehalococcoides mccartyi, UniProt A0A1C7D1B7 1-459, R6A).
Experiment in all cases: EMSA
Background: A gel shift assay detects complexes by their altered migration in electrophoresis.

Series [1] deals with DmcElp3 wild type (monomer) (Dehalococcoides mccartyi, UniProt A0A1C7D1B7 1-459).
Series [2] deals with DmcElp3 wild type (dimer) (Dehalococcoides mccartyi, UniProt A0A1C7D1B7 1-459).

B1: D. mccartyi tRNAGlu-1 (UUC) (structured_RNA)
RNA: GCCCCCAUCGUCUAGAGGCCCAGGACAGCGGCCUUUCACGCCGUCAACAGGGGUUCGAAUCCCCUUGGGGGUACCA
B1: the binding result in the series with DmcElp3 9-459, in the series with DmcElp3 K2A K3A and with DmcElp3 R6A was “no binding” each time. The Kd in series [1] and in series [2] was roughly 4 µM throughout.
